Several values for one entry are separate records, joined by “and”; a condition that tells them apart may be missing. Identical values can stand only once.
Tests used:
[1] = tested on: plasma cell myeloma cell line L363; type: in vivo, NOD/SCID mice; settings: 4 mg/kg BT062 alone, once weekly
Procedure: In this model, a highly aggressive CD138 expressing plasma cell myeloma cell line L363 was subcutaneously implanted into NOD/SCID mice. Treatment started when tumors reached a size of approx. 100 mm^3. […] Tumor size was measured once weekly.

[2] = tested on: MOLP8 multiple myeloma cells; assay: MOLP8 xenograft, combination BT062 and VELCADE; type: in vivo, mice
Source text: The ACTIVITY RATING is another measurement for the effects of a combination. This rating is based on the Log10 cell kill
where (T-C) or tumor growth delay, is the median time in days required for the treatment group (T) and the control group (C) tumours, to reach a predetermined size (600 mm^3).

[3] = Plasma level of BT062 (PK ELISA), repeated multiple dose; type: in vivo, human
Procedure: (§1) Theoretical Cmax was Calculated According to the Following Assumed Parameters: […]
The same evaluation was performed during treatment cycle 4.
(§2) The wells of a microtiter plate are first coated with anti-maytansinoid (anti-DM4) antibody overnight at 2-8° C. and after blocking with assay buffer (0.5% BSA/TBS) incubated on the next day with plasma samples. These are diluted beforehand at least 1:100 in assay buffer. […] After incubation, unbound material is removed by washing. […] Unbound secondary antibody is removed by another washing step. After this, TMB substrate solution is pipetted into all the wells. […] The color reaction is ended using a stop solution, which causes the color to change from blue to yellow. The final measurement is carried out with a photometer at a wavelength of 450 nm.
(§3) The relationship between concentration and optical density is evaluated using Magellan V6.6 software.

[4] = tested on: human derived breast cancer model with CD138 IHC score 2-3; assay: Breast cancer model, CD138 IHC score 2-3; type: in vivo, NMRI nude mice; settings: 8 mg/kg once weekly
Source text: The results are shown in terms of the effect on the mean relative tumor volume in the model relative to an intravenous administration of PBS. For the calculation of the median relative tumor volume on day, see FIG. 33.

Lung carcinoma = Lung carcinoma xenograft; type: in vivo, NMRI (nude) mice; settings: both dose groups (4 mg/kg and 23.85 mg/kg once per week)
Procedure: These tumors display similar characteristics as the patient tumors, since they are passaged in mice at low numbers, to retain original characteristics.
NMRI (nude) mice are implanted with a Lung carcinoma (determined via IHC analysis as CD138 strong positive).
Tumor diameters are measured two times a week.

[5] = Half life in human plasma ex vivo; type: in vitro ADME
primary pancreatic tumor = assay: Example 9 xenograft (FIG. 38); type: in vivo, NMRI (nude) mice; settings: 4 and 8 mg/kg once weekly; re-growth in treatment free period
Source text: The results are shown in terms of the effect on the mean relative tumor volume.

[6] = Plasma level of BT062 (PK ELISA), repeated single dose; type: in vivo, human; settings: for effective Cmax (cycle 1) mean: 0-2 h post infusion; for effective Cmax (cycle 4) mean: day 64
Procedure: as §1
The same evaluation was performed during treatment cycle 4. […] The amount of BT062 in the plasma is determined via a PK ELISA method described as follows:
as §2, §3

## BT062
[1]
  tumor growth: active in reducing the tumor growth
[2]; BT062 100 ug/kg
  (T − C): 5.5 days
  Regressions Complete: 0/6
  Regressions Partial: 0/6
  Result: Inactive
  Tumor free survivors day 67: 0/6
  log cell kill: 0.5
[2]; BT062 100 ug/kg, Day 1
  T/C (%): 43%
[2]; BT062 200 ug/kg
  (T − C): 14.5 days
  Regressions Complete: 0/6
  Regressions Partial: 1/6
  Result: Active
  Tumor free survivors day 67: 0/6
  log cell kill: 1.3
[2]; BT062 200 ug/kg, Day 1
  T/C (%): 11%
[2]; BT062 400 ug/kg
  (T − C): 31.5 days
  Regressions Complete: 2/6
  Regressions Partial: 4/6
  Result: highly active (A Log10 cell kill of higher than 2.8)
  Tumor free survivors day 67: 0/6
  log cell kill: 2.8
[2]; BT062 400 ug/kg, Day 1
  T/C (%): 7%
[2]; last line: BT062 400 ug/kg
  (T − C): 36.5 days
  Regressions Complete: 0/6
  Regressions Partial: 6/6
  Result: highly active (A Log10 cell kill of higher than 2.8)
  Tumor free survivors day 67: 0/6
  log cell kill: 3.2
[2]; last line: BT062 400 ug/kg Day 1
  T/C (%): 7%
[3]; 40 mg/m^2 weekly
  % of theoretical Cmax, Mean (%): 33%
[3]; 40 mg/m^2 weekly, table rows = cycles C1 to C4
  Mean conc. missing to theor. Cmax per Cycle: 19.5
[3]; 50 mg/m^2 weekly
  % of theoretical Cmax, Mean (%): 33%
[3]; 50 mg/m^2 weekly, table rows = cycles C1 to C4
  Mean conc. missing to theor. Cmax per Cycle: 23.3
[3]; 65 mg/m^2 weekly
  % of theoretical Cmax, Mean (%): 60%
[3]; 65 mg/m^2 weekly, cycle/day C1 D1 to C3 D15
  % of theoretical Cmax: 43% and 63% and 72% and 52% and 61% and 71% and 73%
[3]; 65 mg/m^2 weekly, table rows = cycles C1 to C3
  Mean conc. missing to theor. Cmax per Cycle: 15.3
[3]; 80 mg/m^2, 2 hr after completion of administration on days 0, 7, 14
  Plasma level/Mean: 22.91 µg/mL
[3]; 80 mg/m^2 weekly, cycle/day C1 D1 to C3 D15
  % of theoretical Cmax: 42% and 45% and 50% and 43% and 39% and 53% and 41%
[3]; 80 mg/m^2 weekly, table rows = cycles C1 to C3
  Mean conc. missing to theor. Cmax per Cycle: 30.3
[3]; 100 mg/m^2 weekly
  % of theoretical Cmax, Mean (%): 108%
[3]; 120 mg/m^2 weekly
  % of theoretical Cmax, Mean (%): 69%
[3]; 120 mg/m^2 weekly, cycle/day C1 D1 to C2 D15
  % of theoretical Cmax: 69% and 74% and 79% and 62% and 67%
[3]; 3×50 mg/m^2 on days 1, 8, 15
  actual Cmax as % of theoretical Cmax: < 50%
[4]
  tumor response: complete remission
Lung carcinoma
  tumor response: Complete remission
[5]
  plasma half life: 14 days
Primary pancreatic tumor
  tumor response: complete remission
[6]; 10 mg/m^2
  percentage of theoretical Cmax (cycle 1): 15%
  effective Cmax (cycle 1) mean: 1.11 µg/mL and 1.1 µg/mL
[6]; 20 mg/m^2
  percentage of theoretical Cmax (cycle 1): 20%
  percentage of theoretical Cmax (cycle 4): 49%
  effective Cmax (cycle 1) mean: 2.9 µg/mL
  effective Cmax (cycle 4) mean: 7.06 µg/mL
[6]; 40 mg/m^2
  percentage of theoretical Cmax (cycle 1): 16%
  percentage of theoretical Cmax (cycle 4): 9%
  effective Cmax (cycle 1) mean: 4.31 µg/mL
  effective Cmax (cycle 4) mean: 2.51 µg/mL
[6]; 80 mg/m^2
  percentage of theoretical Cmax (cycle 1): 34%
  percentage of theoretical Cmax (cycle 4): 26%
  effective Cmax (cycle 1) mean: 18.8 µg/mL
  effective Cmax (cycle 4) mean: 14.2 µg/mL
[6]; 120 mg/m^2
  percentage of theoretical Cmax (cycle 1): 26.5%
  effective Cmax (cycle 1) mean: 21.4 µg/mL
[6]; 160 mg/m^2
  percentage of theoretical Cmax (cycle 1): 74.5%
  percentage of theoretical Cmax (cycle 4): 71%
  effective Cmax (cycle 1) mean: 81.2 µg/mL
  effective Cmax (cycle 4) mean: 77.4 µg/mL
[6]; 200 mg/m^2
  percentage of theoretical Cmax (cycle 1): 60%
  effective Cmax (cycle 1) mean: 82.0 µg/mL

Reference: US20190117770A1, “USES OF IMMUNOCONJUGATES TARGETING CD138” (Biotest AG, priority 2011, published 2019)
